Measured values as given in patent US20110038869A1 (Genmab, published 2011).
Residue numbers refer to the chain shown, from its start.

B1: Antibody 038 (antibody, human IgG1, V domains shown)
VH: QVQLVESGGGVVQPGRSLRLSCAASGFTFSTYGMHWVRQAPGKGLEWVAVISHDGSDKYYADSVKGRFTISRDNSKNTLYLQMNSLRAEDTAVYYCARDQSIIETFDYWGQGTLVTVSS
VL: EIVLTQSPATLSLSPGERATLSCRASQSVSSYLAWYQQKPGQAPRLLIYDASNRATGIPARFSGSGSGTDFTLTISSLEPEDFAVYYCQQRSNWGFTFGPGTKVDIKR
notes: Human antibody; also called HuMab 038
B2: Antibody 024 (antibody, V domains shown)
VH: QVQLVQSGAEVKKPGASVKVSCKASGYTFTSYGLSWVRQAPGQGLEWMGWISPYNGNTHYAQKLQGRVTMTTDTSTSTAYMDLRSLRSDDTAVYYCARDSAAHGMDVWGQGTTVTVSS
VL: DIQMTQSPSSLSASVGDRVTITCRASQGISSWLAWYQQKPEKAPKSLIYAASSLQSGVPSRFSGSRSGTDFTLTISSLQPEDFATYYCQQYNSYPYTFGQGTKLEIKR
notes: also called HuMab 024
B3: Antibody 026 (antibody, V domains shown)
VH: B2 VH with P53A, H59N
VL: B2 VL
notes: Human antibody; also called HuMab 026
B4: Antibody 028 (antibody, V domains shown)
VH: B2 VH with L4V, A24T, L34I, P53A, H59K, V68L, S77T, D82E, T115S
VL: B2 VL
notes: List 1 gives no VL for antibody 028; The VL is therefore uncertain; also called HuMab 028
B5: Antibody 022 (antibody, V domains shown)
VH: B2 VH with Y80D, D99A
VL: B2 VL
notes: also called HuMab 022
B6: Antibody 020 (antibody, V domains shown)
VH: B2 VH with A9G, A24T, L34I, P53A, H59K, V68L, S77T, D82E
VL: B2 VL with S63R, R66G
notes: also called HuMab 020

Legend:
biotinylated CD32bECDHis [1] = target: T1, biotinylated CD32bECDHis (human, UniProt P31994 43-223, limits assumed, biotinylated (sites not given)); experiment: competition ELISA, competitor 024
T1 sequence (looked up): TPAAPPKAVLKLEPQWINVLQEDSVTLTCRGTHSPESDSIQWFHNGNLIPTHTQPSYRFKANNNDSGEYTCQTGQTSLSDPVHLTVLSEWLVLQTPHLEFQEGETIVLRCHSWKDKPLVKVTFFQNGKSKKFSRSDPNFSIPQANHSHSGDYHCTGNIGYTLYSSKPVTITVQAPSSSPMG
Description: (§1) ELISA wells were coated overnight at 4° C. with anti-CD32b HuMabs serially diluted in PBS. The ELISA wells were washed with PBS, blocked for one hour at room temperature with 2% (v/v) chicken serum (Gibco, Paisley, Scotland) in PBS and washed again with PBS. Subsequently, the immobilized antibodies were incubated with biotinylated CD32bECDHis serially diluted in PBSTC. After washing with PBS/Tween, bound biotinylated CD32bECDHis was incubated with Streptavidin-poly-HRP (Sanquin, Amsterdam, The Netherlands) for 1 hr at RT an the reaction was developed as described supra.
(§2) To this end, ELISA wells coated with anti-CD32b HuMabs were incubated in the presence of an excess of CD32b-specific antibody and the predetermined concentration of biotinylated CD32bECDHis in fluid phase. The reaction was developed as described.

biotinylated CD32bECDHis [2] = target: T1, biotinylated CD32bECDHis; experiment: competition ELISA, competitor 2B6
Description: as §1, §2

biotinylated CD32bECDHis [3] = target: T1, biotinylated CD32bECDHis; experiment: competition ELISA, competitor 016
Description: as §1, §2

biotinylated CD32bECDHis [4] = target: T1, biotinylated CD32bECDHis; experiment: competition ELISA, competitor 053
Description: as §1, §2

biotinylated CD32bECDHis [5] = target: T1, biotinylated CD32bECDHis; experiment: competition ELISA, competitor 038
Description: as §1, §2

CD32bECDHis [6] = target: T2, CD32bECDHis (human, UniProt P31994 43-223, limits assumed); experiment: ELISA on coated CD32bECDHis
T2 construct: Produced in HEK-293F cells; also called extracellular domain of CD32b with C-terminal His tag; soluble CD32b
T2 sequence (looked up): T1 sequence (looked up)
Description: The specificity of the obtained anti-CD32b HuMabs was evaluated by ELISA. ELISA plates (Microlon; Greiner Bio-One) were coated overnight at 4° C. with 2 μg/ml of CD32aECDHis and CD32bECDHis in PBS, pH 7.4. Coated ELISA plates were washed with PBS, blocked for one hour at room temperature with 2% (v/v) chicken serum (Gibco, Paisley, Scotland) in PBS and washed again with PBS. Subsequently, HuMabs, serially diluted in PBSTC (PBS supplemented with 2% (v/v) chicken serum and 0.05% (v/v) Tween-20), were incubated for 1 hr at RT under shaking conditions (300 rpm). Bound HuMabs were detected using HRP-conjugated goat-anti-human IgG antibodies (Jackson ImmunoResearch Europe) diluted 1:10,000 in PBSTC, which were incubated for 1 hr at RT under shaking conditions (300 rpm). […] Binding curves were analyzed using non-linear regression (sigmoidal dose-response with variable slope) using GraphPad Prism V4.03 software.

biotinylated CD32bECDHis [7] = target: T1, biotinylated CD32bECDHis; experiment: competition ELISA, competitor 026
Description: as §1, §2

CD32bECDHis [8] = target: T2, CD32bECDHis; experiment: SPR BIAcore 3000, antibody immobilized, CD32bECDHis analyte
Description: Antibody binding to CD32a and CD32b was analyzed by surface plasmon resonance in a BIAcore 3000 (GE Healthcare). CD32aECDHis and CD32bECDHis derived from HEK293 cells were used for the analysis. HuMab antibodies were immobilized on the CM-5 sensor chip according to the procedure recommended by the manufacturer. Briefly, after surface activation by EDC and NHS HuMab antibody was injected over the activated CM-5 surface in 10 mM sodium-acetate, pH ranging from 4.0 to 5.5 at 5 μl/min. followed by 1 M Ethanolamine for deactivation. Concentration series of CD32bECDHis in HBS-EP buffer were injected over the immobilized antibodies at a flow rate of 30 μl/min for 180 sec. Regeneration of the HuMab surface was performed by injection of 10 mM Glycine-HCl pH 2.0 or 10 mM sodium acetate pH 3.0. […] Kinetic analysis is performed using double reference subtraction and model 1:1 (langmuir) binding analysis. Specificity was studied by injecting CD32aECDHis at a concentration of […] over immobilized HuMab and isotype control antibodies under the same conditions as for the CD32b measurements.

biotinylated CD32bECDHis [9] = target: T1, biotinylated CD32bECDHis; experiment: competition ELISA, competitor 022
Description: as §1, §2

biotinylated CD32bECDHis [10] = target: T1, biotinylated CD32bECDHis; experiment: competition ELISA, competitor 063
Description: as §1, §2

biotinylated CD32bECDHis [11] = target: T1, biotinylated CD32bECDHis; experiment: competition ELISA, competitor 034
Description: as §1, §2

biotinylated CD32bECDHis [12] = target: T1, biotinylated CD32bECDHis; experiment: competition ELISA, competitor 028
Description: as §1, §2

Binder	% residual binding (biotinylated CD32bECDHis [1]) [%]	% residual binding (biotinylated CD32bECDHis [2]) [%]	% residual binding (biotinylated CD32bECDHis [3]) [%]	% residual binding (biotinylated CD32bECDHis [4]) [%]	% residual binding (biotinylated CD32bECDHis [5]) [%]	EC50 (CD32bECDHis [6]) [nM]	% residual binding (biotinylated CD32bECDHis [7]) [%]	Kd (CD32bECDHis [8]) [nM]	koff (CD32bECDHis [8]) [s⁻¹]	kon (CD32bECDHis [8]) [M⁻¹ s⁻¹]	% residual binding (biotinylated CD32bECDHis [9]) [%]	% residual binding (biotinylated CD32bECDHis [10]) [%]	% residual binding (biotinylated CD32bECDHis [11]) [%]	% residual binding (biotinylated CD32bECDHis [12]) [%]
B1	351	5	105	333	17	0.62	308	1	0.00156	1.54e+06	350	283	354	317
B2	15	98	101	69	103	0.75	56	0.9	0.00126	1.44e+06	17	68	6	34
B3	1	146	104	29	127	0.51	4	1.3	0.00179	1.4e+06	1	27	0	3
B4	7	125	109	51	121	0.48	32	1.3	0.00199	1.58e+06	6	45	2	15
B5	13	96	102	64	115	0.75	42	0.7	0.00103	1.48e+06	14	63	7	27
B6	4	126	105	42	120	0.49	28	2.4	0.00363	1.54e+06	6	42	1	13
